Measured values published in publication PMC3950343 (Genes & Development, 2014).

Molecular target: the molecule itself
Assay: SEC-MALS

B1: Rad50-HK^WT (mouse Rad50 hook domain fragment, amino acids 591-773) (domain or fragment, UniProt P70388 591-773, looked up)
chain: RDRLAKLNKELASAEQNKNHINNELKKKEEQLSSYEDKLFDVCGSQDLESDLGRLKEEIEKSSKQRAMLAGATAVYSQFITQLTDENQSCCPVCQRVFQTEAELQEVISDLQSKLRLAPDKLKSTESELKKKERRRDEMLGLVPVRQSIIDLKEKEIPELRNRLQSVNRDIQRLKNDIEEQET
- stoichiometry N: 2
